Results taken from publication PMC12305242, “Native Top–Down Analysis of Membrane Protein Complexes Directly From In Vitro and Native Membranes” (Molecular & Cellular Proteomics : MCP, 2025).

Key:
[1] = target: T1, β-barrel–assembly machinery (BAM) complex (Escherichia coli, UniProt P0A940); experiment: native MS of membrane vesicles, complex-up (HCD) of bound species; assay type: binding; conditions: 100 uM MRL-494, 1 h on ice, native E. coli membrane vesicles; bound to the complex, subunit not resolved
T1 construct: gene bamA; endogenous, untagged heteropentamer BAM-ABCDE, lipidated proteoforms, about 199 kDa, ejected from native E. coli BL21 membrane vesicles; with Outer membrane protein assembly factor BamB; Outer membrane protein assembly factor BamC; Outer membrane protein assembly factor BamD; Outer membrane protein assembly factor BamE

[2] = target: T2, dihydrolipoyl dehydrogenase (DLDH) (Escherichia coli, UniProt P0A9P0); experiment: native MS complex-up (HCD), mass shift of ejected monomer; assay type: binding; conditions: endogenous ligand, native E. coli membrane vesicles; ligand identified by added mass and database search
T2 construct: gene lpdA; endogenous, untagged, ejected from native E. coli BL21 membrane vesicles
T2 sequence (P0A9P0 2-474): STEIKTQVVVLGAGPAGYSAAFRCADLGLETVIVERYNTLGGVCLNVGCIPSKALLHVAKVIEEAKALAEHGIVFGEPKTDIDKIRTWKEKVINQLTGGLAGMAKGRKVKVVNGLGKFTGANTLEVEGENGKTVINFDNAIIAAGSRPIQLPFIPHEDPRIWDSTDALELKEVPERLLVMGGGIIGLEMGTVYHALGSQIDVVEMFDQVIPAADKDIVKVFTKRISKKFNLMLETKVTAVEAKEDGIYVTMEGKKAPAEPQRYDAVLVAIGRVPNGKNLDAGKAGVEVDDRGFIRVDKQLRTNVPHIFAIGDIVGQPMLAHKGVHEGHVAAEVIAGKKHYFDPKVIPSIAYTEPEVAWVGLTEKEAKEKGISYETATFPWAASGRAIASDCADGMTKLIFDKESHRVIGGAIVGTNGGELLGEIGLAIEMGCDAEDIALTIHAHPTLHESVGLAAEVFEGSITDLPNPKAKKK

[3] = target: the molecule itself; experiment: native MS; endogenous complexes ejected from E. coli BL21 native membrane vesicles (500 mM NH4Ac, 300 ug/ml protein, 5% (v/v) glycerol as supercharger), in-source activation; quadrupole isolation and complex-up analysis by HCD/CID; no detergent
[4] = target: the molecule itself; experiment: native MS; purified protein reconstituted into proteoliposomes (E. coli Polar Lipid Extract, 200 mM NH4Ac), 0.1% (v/v) 3-nitrobenzyl alcohol as supercharger, ejected by in-source activation; protein 2 to 10 uM; Q Exactive UHMR
AqpZ, P60844 = target: T3, AqpZ, P60844; experiment: as above; conditions: remark: other sources report otherwise
T3 chain: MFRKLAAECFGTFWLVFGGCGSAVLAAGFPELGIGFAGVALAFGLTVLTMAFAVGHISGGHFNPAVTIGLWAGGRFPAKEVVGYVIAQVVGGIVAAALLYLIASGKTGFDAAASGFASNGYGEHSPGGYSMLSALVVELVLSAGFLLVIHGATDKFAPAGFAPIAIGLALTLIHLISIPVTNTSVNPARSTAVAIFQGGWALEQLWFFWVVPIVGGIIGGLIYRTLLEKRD

NC(N)=NC(=O)CC(Nc1nc(N=C(N)N)nc(NC2CCC(NC(=O)Cn3nnc(-c4ccc(F)cc4)n3)CC2)n1)C1CC1 (centres unmarked) [MRL-494]
native MS of membrane vesicles, complex-up (HCD) of bound species [1]: The results provide direct evidence for MRL-494 BAM complex interaction

Cc1cc2nc3c(=O)[nH]c(=O)nc-3n(C[C@H](O)[C@H](O)[C@H](O)COP(=O)(O)OP(=O)(O)OC[C@H]3O[C@@H](n4cnc5c(N)ncnc54)[C@H](O)[C@@H]3O)c2cc1C [flavin adenine dinucleotide]
native MS complex-up (HCD), mass shift of ejected monomer [2]: identified the ligand as flavin adenine dinucleotide, an endogenous cofactor of DLDH

B1: dihydrolipoyl dehydrogenase (enzyme, UniProt P0A9P0 1-474, looked up)
chain: MSTEIKTQVVVLGAGPAGYSAAFRCADLGLETVIVERYNTLGGVCLNVGCIPSKALLHVAKVIEEAKALAEHGIVFGEPKTDIDKIRTWKEKVINQLTGGLAGMAKGRKVKVVNGLGKFTGANTLEVEGENGKTVINFDNAIIAAGSRPIQLPFIPHEDPRIWDSTDALELKEVPERLLVMGGGIIGLEMGTVYHALGSQIDVVEMFDQVIPAADKDIVKVFTKRISKKFNLMLETKVTAVEAKEDGIYVTMEGKKAPAEPQRYDAVLVAIGRVPNGKNLDAGKAGVEVDDRGFIRVDKQLRTNVPHIFAIGDIVGQPMLAHKGVHEGHVAAEVIAGKKHYFDPKVIPSIAYTEPEVAWVGLTEKEAKEKGISYETATFPWAASGRAIASDCADGMTKLIFDKESHRVIGGAIVGTNGGELLGEIGLAIEMGCDAEDIALTIHAHPTLHESVGLAAEVFEGSITDLPNPKAKKK
notes: dihydrolipoyl dehydrogenase (DLDH, gene lpdA), E. coli BL21, endogenous peripheral membrane protein; also called DLDH; lpdA; source: endogenous, E. coli BL21 membrane vesicles (N2 cavitation)
stoichiometry N [3]: 2

B2: semiSWEET (natural protein)
chain: MALIERIGKALEPLMLVMGLISPLATMPQLYKLYVSHSEHALGLSLTTWLLYSFIALLWTIYGIYHKNPTIWVGNCLGFLMYVAMVVGIIAHTGGTY
stoichiometry N [4]: 2

B3: AqpZ, P60844 1-231 (natural protein)
chain: MFRKLAAECFGTFWLVFGGCGSAVLAAGFPELGIGFAGVALAFGLTVLTMAFAVGHISGGHFNPAVTIGLWAGGRFPAKEVVGYVIAQVVGGIVAAALLYLIASGKTGFDAAASGFASNGYGEHSPGGYSMLSALVVELVLSAGFLLVIHGATDKFAPAGFAPIAIGLALTLIHLISIPVTNTSVNPARSTAVAIFQGGWALEQLWFFWVVPIVGGIIGGLIYRTLLEKRD
stoichiometry N (AqpZ, P60844): 4
